Experiment [1] concerns the target CD38 antigen on the cell surface (Daudi cells; NCI-H929 cells) (human) (UniProt P28907). Description: cell-based or functional assay.
Experiment [2] deals with CD38 (human), analyte in Biacore (human) (UniProt P28907). Description: SPR (Biacore 8K), antibody captured on Protein A chip, CD38 as analyte, 25℃.

pKd: −log10 of the molar value.

Regarding Isotype control (antibody), in experiment [1], the ADCC reporter (Jurkat-Lucia-NFAT-CD16 + NCI-H929), EC50(μg/mL) turned out to be 0.375 µg/mL and the ADCC reporter (Jurkat-Lucia-NFAT-CD16 + NCI-H929), Top MFI worked out at 2120.
With RB0021 PC(Daratumumab) (antibody), in experiment [2], the pKd (usually the Kd on a negative log10 scale, so that one unit is a factor of ten) was 7.05. Besides, in experiment [1], the ADCC reporter (Jurkat-Lucia-NFAT-CD16 + NCI-H929), EC50(μg/mL) stood at 0.017 µg/mL and the ADCC reporter (Jurkat-Lucia-NFAT-CD16 + NCI-H929), Top MFI is 57200.
